In article PMC5014685 (Structure (London, England : 1993), 2016):

B1: IQGAP1 GTPase-activating protein (GAP)-related domain (residues 962-1345) (domain or fragment)
chain: GAMSKEKREKLEAYQHLFYLLQTNPTYLAKLIFQMPQNKSTKFMDSVIFTLYNYASNQREEYLLLRLFKTALQEEIKSKVDQIQEIVTGNPTVIKMVVSFNRGARGQNALRQILAPVVKEIMDDKSLNIKTDPVDIYKSWVNQMESQTGEASKLPYDVTPEQALAHEEVKTRLDSSIRNMRAVTDKFLSAIVSSVDKIPYGMRFIAKVLKDSLHEKFPDAGEDELLKIIGNLLYYRYMNPAIVAPDAFDIIDLSAGGQLTTDQRRNLGSIAKMLQHAASNKMFLGDNAHLSIINEYLSQSYQKFRRFFQTACDVPELQDKFNVDEYSDLVTLTKPVIYISIGEIINTHTLLLDHQDAIAPEHNDPIHELLDDLGEVPTIESLIGESS
B2: IQGAP2 GTPase-activating protein (GAP)-related domain (residues 875-1257) (domain or fragment, human)
chain: GAMSKERRKTLETYQQLFYLLQTNPLYLAKLIFQMPQNKSTKFMDTVIFTLYNYASNQREEYLLLKLFKTALEEEIKSKVDQVQDIVTGNPTVIKMVVSFNRGARGQNTLRQLLAPVVKEIIDDKSLIINTNPVEVYKAWVNQLETQTGEASKLPYDVTTEQALTYPEVKNKLEASIENLRRVTDKVLNSIISSLDLLPYGLRYIAKVLKNSIHEKFPDATEDELLKIVGNLLYYRYMNPAIVAPDGFDIIDMTAGGQINSDQRRNLGSVAKVLQHAASNKLFEGENEHLSSMNNYLSETYQEFRKYFKEACNVPEPEEKFNMDKYTDLVTVSKPVIYISIEEIISTHSLLLEHQDAIAPEKNDLLSELLGSLGEVPTVESFLGEG

How the values were obtained:
[1] = target: B2; assay: crystal structure
[2] = target: B1; assay: ITC
[3] = target: B2; assay: ITC
[4] = target: human hydrolase deficient (Q61L) Rac1 (residues 1-177), GTP-bound (human, UniProt P63000 1-177, Q61L); assay: ITC
crystal structure = target: the molecule itself; assay: crystal structure

| binding result [4] | Binder | other results |
| --- | --- | --- |
| – | human hydrolase deficient (Q61L) Cdc42 (residues 1-177), GTP-loaded (domain or fragment) not shown | stoichiometry N [1]: 2 Cdc42 per GRD2; stoichiometry N [2]: 2 Cdc42 per GRD; stoichiometry N [3]: 2 Cdc42 per GRD |
| binds | GRD1 6xAla mutant (N1011A, N1015A, Q1016A, R1017A, E1018A, T1291A) (domain or fragment) GAMASKEKREKLEAYQHLFYLLQTNPTYLAKLIFQMPQNKSTKFMDSVIFTLYAYASAAAAEYLLLRLFKTALQEEIKSKVDQIQEIVTGNPTVIKMVVSFNRGARGQNALRQILAPVVKEIMDDKSLNIKTDPVDIYKSWVNQMESQTGEASKLPYDVTPEQALAHEEVKTRLDSSIRNMRAVTDKFLSAIVSSVDKIPYGMRFIAKVLKDSLHEKFPDAGEDELLKIIGNLLYYRYMNPAIVAPDAFDIIDLSAGGQLTTDQRRNLGSIAKMLQHAASNKMFLGDNAHLSIINEYLSQSYQKFRRFFQTACDVPELQDKFNVDEYSDLVTLAKPVIYISIGEIINTHTLLLDHQDAIAPEHNDPIHELLDDLGEVPTIESLIGESS | – |
| binds | GRD2 6xAla mutant (N924A, N928A, Q929A, R930A, E931A, S1204A) (domain or fragment) GAMASKERRKTLETYQQLFYLLQTNPLYLAKLIFQMPQNKSTKFMDTVIFTLYAYASAAAAEYLLLKLFKTALEEEIKSKVDQVQDIVTGNPTVIKMVVSFNRGARGQNTLRQLLAPVVKEIIDDKSLIINTNPVEVYKAWVNQLETQTGEASKLPYDVTTEQALTYPEVKNKLEASIENLRRVTDKVLNSIISSLDLLPYGLRYIAKVLKNSIHEKFPDATEDELLKIVGNLLYYRYMNPAIVAPDGFDIIDMTAGGQINSDQRRNLGSVAKVLQHAASNKLFEGENEHLSSMNNYLSETYQEFRKYFKEACNVPEPEEKFNMDKYTDLVTVAKPVIYISIEEIISTHSLLLEHQDAIAPEKNDLLSELLGSLGEVPTVESFLGEG | – |
| binds | B1 | – |
| binds | B2 | stoichiometry N (crystal structure): 2 |
